How the values were obtained:
Test in all cases: cell-based or functional assay
[1] = target: HA (H3) of influenza virus A/Wyoming/3/2003 (influenza A virus A/Wyoming/3/2003 …)
[2] = target: NA (N2) of influenza virus A/Switzerland/9715283/2013 (influenza A virus …)
[3] = target: NA (N2) of influenza virus A/Victoria/210/2009 (influenza A virus A/Victoria/210/2009 …)
[4] = target: NA (N2) of influenza virus A/Wyoming/3/2003 (influenza A virus A/Wyoming/3/2003 …)

| Binder | NT50 [1] [µg/mL] | NT50 [2] [µg/mL] | NT50 [3] [µg/mL] | NT50 [4] [µg/mL] |
| --- | --- | --- | --- | --- |
| 1092C4 hmAb (antibody, V domains shown) VH: EVQLVQSGAEVKKPGASVKVSCKASGYSFTRYGISWVRQAPGQGLEWMGWISAYTGNTDYAQKFQGRITMTTDTSTSTAYMELRSLRSDDTAVYYCARDLPQGVVILGSYYYGMDVWGQGNTVTVSS VL: EIVLTQSPGTLSLSPGERATLSCRASQSVTSRYLAWYQQKLGQAPRLLIYGASSRATGIPDRFSGSGSGTDFTLTISSLEPEDLAVYYCQQSGSPRTFGQGTKVEIK | 1.6 | – | – | – |
| 1092E4 hmAb (antibody, V domains shown) VH: QVQLVQSGAEVKKPGASVKVSCKASGYSFTRYGISWVRQAPGQGLEWMGWISAYTGNTDYAQKFQGRITMTTDTSTSTVYMELRSLRSDDTAVYYCARDHPQGVVILGSYYYGMDVWGQGNTVTVSS VL: EIVLTQSPGTLSLSPGERATLSCRASQSVTSRYLAWYQQKLGQAPRLLIYGASSRATGIPDRFSGSGSGTDFTLTISSLEPEDFAVYYCQQSGSPRTFGQGTKVEIK | 3.13 | – | – | – |
| 1086G8 hmAb (antibody, V domains shown) VH: EVQLLESGGGLVQPGGSLRLSCTASGFTFASDAMNWVRQAPGKGLEWVSAISGNGGITYFADSVKGRFTISRDNSKDTLYLQMDSLRAEDTAVYYCAKGVAPSHFNLLTGYYAGHYYFDFWGQGTLVTVSS VL: EIVMTQSPATLSVSPGERATLSCRASQSVRHNLAWYQHKPGQPPRLLIYGASTRAASVPARFSGSGSGTDFTLTISSLQSEDFAVYYCQQYNHWPPYTFGQGTKLEIK | 0.78 | – | – | – |
| 1122A11 hmAb (antibody, V domains shown) VH: QVQLVQSGAEVSKPGASVKVSCKASGYSFTSQSLGWVRQAPGQGLEWMGIINPSGGITNYAHKFQGRVTMTRDTSTSTVYMELSSLRSEDTALYYCVRDLSHYNEVGHDRAYYYGMDIWGQGTTVTVSS VL: SYELIQPPSVSVSPGQTASITCSGDKLGKKYTCWYQQKPGQSPVLVIYQDNKRPSGIPERFSGSNSGNTATLTISGTQAMDEADYYCQAWDSSAVVFGGGTKLTVL | – | 25 | 25 | 6.25 |

Reference: patent publication US20230107644A1 (UNIVERSITY OF ROCHESTER, published 2023)
